Laboratory results published in patent publication US20160038588A1, “Myostatin Antagonism in Human Subjects” (AMGEN INC., priority 2013, published 2016).

Biological target: T1, myostatin (Homo sapiens, UniProt O14793)
T1 construct: To produce mature myostatin, the pooled promyostatin was enzymatically cleaved between the propeptide and mature myostatin C terminal; made in house
T1 sequence (O14793 267-375): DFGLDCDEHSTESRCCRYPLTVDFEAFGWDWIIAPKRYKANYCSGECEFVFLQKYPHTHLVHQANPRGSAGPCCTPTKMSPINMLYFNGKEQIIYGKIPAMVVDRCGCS
Assay: BIAcore affinity analysis on immobilized myostatin
Type: binding
Settings: Biacore assay
Excerpt: The antagonists including the binding agents described herein can be tested for their ability to bind myostatin and inhibit or block myostatin activity. Any number of assays or animal tests may be used to determine the ability of the agent to inhibit or block myostatin activity. Several assays used for characterizing the peptides and peptibodies of the present invention are described in the Examples below. One assay is the C2C12 pMARE-luc assay which makes use of a myostatin-responsive cell line (C2C12 myoblasts) transfected with a luciferase reporter vector containing myostatin/activin response elements (MARE). Exemplary peptibodies are assayed by pre-incubating a series of peptibody dilutions with myostatin, and then exposing the cells to the incubation mixture. The resulting luciferase activity is determined, and a titration curve is generated from the series of peptibody dilutions. The IC50 (the concentration of peptibody to achieve 50% inhibition of myostatin activity as measured by luciferase activity) was then determined. […]
Direct binding assays were used to screen and rank the peptibodies in order of their ability to bind to immobilized myostatin. […] Peptibody binding kinetic parameters including ka (association rate constant), kd (dissociation rate constant) and KD (dissociation equilibrium constant) were determined using the BIA evaluation 3.1 computer program (Biacore, Inc.). […]

B1: ActRIIB/Fc: soluble receptor fusion protein actRIIB/Fc (R &D Systems) (protein)
chain: SGRGEAETRECIYYNANWELERTNQSGLERCEGEQDKRLHCYASWRNSSGTIELVKKGCWLDDFNCYDRQECVATEENPQVYFCCCEGNFCNERFTHLPEAGGPEVTYEPPPTAPT
modifications: left off: a dimerising Fc or GST
Kd: ~7 nM
